From FireProtDB (doi:10.1016/0167-4838(95)00124-d) come the findings set out here.

For the data set the following is noted: Rattus norvegicus, pH 7.2, Absorbance, MOPS 0.1 M, reversible: Yes; for ddG of mutation (higher = less stable) / unfolding free energy: 25 °C, Urea; for Tm / change of melting temperature, mutant - wild type (higher = more stable): Thermal.

Sequence of Cytochrome c, somatic P31A|Y68F, P62898 P31A Y68F (P62898 whole entry P31A/Y68F): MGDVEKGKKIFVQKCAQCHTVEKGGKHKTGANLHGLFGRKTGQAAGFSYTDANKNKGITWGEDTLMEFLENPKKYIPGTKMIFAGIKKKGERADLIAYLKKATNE
Sequence of Cytochrome c, somatic H27V, P62898 (P62898 whole entry H27V): as the sequence (P62898 whole entry P31A/Y68F) above, with H27V, A31P, F68Y counted along it
Sequence of Cytochrome c, somatic Y68F, P62898 (P62898 whole entry Y68F): as the sequence (P62898 whole entry P31A/Y68F) above, with A31P counted along it
Sequence of Cytochrome c, somatic H27V|H34F, P62898 H27V H34F (P62898 whole entry H27V/H34F): as the sequence (P62898 whole entry P31A/Y68F) above, with H27V, A31P, H34F, F68Y counted along it
Sequence of Cytochrome c, somatic H34F, P62898 (P62898 whole entry H34F): as the sequence (P62898 whole entry P31A/Y68F) above, with A31P, H34F, F68Y counted along it
Sequence of Cytochrome c, somatic P31A, P62898 (P62898 whole entry P31A): as the sequence (P62898 whole entry P31A/Y68F) above, with F68Y counted along it
Sequence of Cytochrome c, somatic N53I, P62898 (P62898 whole entry N53I): as the sequence (P62898 whole entry P31A/Y68F) above, with A31P, N53I, F68Y counted along it
Sequence of Cytochrome c, somatic wild type, P62898 (P62898 whole entry): as the sequence (P62898 whole entry P31A/Y68F) above, with A31P, F68Y counted along it
Sequence of Cytochrome c, somatic P31V, P62898 (P62898 whole entry P31V): as the sequence (P62898 whole entry P31A/Y68F) above, with A31V, F68Y counted along it
Sequence of Cytochrome c, somatic H27V|N53I, P62898 H27V N53I (P62898 whole entry H27V/N53I): as the sequence (P62898 whole entry P31A/Y68F) above, with H27V, A31P, N53I, F68Y counted along it

Take Cytochrome c, somatic H27V, P62898: under “structure 1I5T”, the “ddG of mutation (higher = less stable)” value turned out to be 3.78 kcal/mol; the unfolding free energy was 5.72 kcal/mol; the Tm was determined as 50 °C; the “change of melting temperature, mutant - wild type (higher = more stable)” value (“change of melting temperature, mutant” for short) is -10 °C.
Taken in the same sequence, the figures for “Cytochrome c, somatic H27V|H34F, P62898 H27V H34F” were 2.15 kcal/mol, 7.35 kcal/mol, 53 °C and -7 °C.
As to “Cytochrome c, somatic H27V|N53I, P62898 H27V N53I”, under “structure 1I5T”, the “ddG of mutation (higher = less stable)” value amounted to 1.86 kcal/mol and the unfolding free energy came to 7.64 kcal/mol.
On to Cytochrome c, somatic H34F, P62898, for which, where the note is “structure 1I5T”, the “ddG of mutation (higher = less stable)” value is -0.67 kcal/mol, the unfolding free energy was determined as 10.2 kcal/mol and the midpoint of thermal melting (Tm) turned out to be 69 °C.
Turning to Cytochrome c, somatic N53I, P62898, under “structure 1I5T”, the unfolding free energy is 6.36 kcal/mol; the Tm was 80 °C; the “change of melting temperature, mutant” value stood at 20 °C.
On to Cytochrome c, somatic P31A, P62898, for which, where the note is “structure 1I5T”, the “ddG of mutation (higher = less stable)” value stood at 5.74 kcal/mol; the unfolding free energy was determined as 3.76 kcal/mol; the Tm was 51 °C; the “change of melting temperature, mutant” value was -9 °C.
Take “Cytochrome c, somatic P31A|Y68F, P62898 P31A Y68F”: under “structure 1I5T”, the unfolding free energy came out at 6.74 kcal/mol; the Tm worked out at 62 °C; the “change of melting temperature, mutant” value was determined as 2 °C.
For Cytochrome c, somatic P31V, P62898, for the setting “structure 1I5T”, the Tm was determined as 49 °C and the “change of melting temperature, mutant” value is -11 °C.
For the substance Cytochrome c, somatic Y68F, P62898, for the setting “structure 1I5T”, the unfolding free energy was found to be 7.19 kcal/mol; the Tm was 90 °C; the “change of melting temperature, mutant” value is 30 °C.
In the case of Cytochrome c, somatic wild type, P62898, the unfolding free energy is 9.5 kcal/mol and the midpoint of thermal melting (Tm) is 60 °C.

What is called Tm is the temperature at the midpoint of the melting transition.
